Here are results for four molecules from CN117836322A.

B1: Cv2.1353 IgG1 (antibody)
heavy: EVQLVESGGGLVQPGGSLRLSCAASGVTVSSNYMNWVRQAPGKGLEWVSVIYSGGSTFYADSVKGRFIISRDNSKNTLYLQMNSLKTEDTAVYYCARDLGPMGFDIWGQGTMVTVSSASTKGPSVFPLAPSSKSTSGGTAALGCLVKDYFPEPVTVSWNSGALTSGVHTFPAVLQSSGLYSLSSVVTVPSSSLGTQTYICNVNHKPSNTKVDKKVEPKSCDKTHTCPPCPAPELLGGPSVFLFPPKPKDTLMISRTPEVTCVVVDVSHEDPEVKFNWYVDGVEVHNAKTKPREEQYNSTYRVVSVLTVLHQDWLNGKEYKCKVSNKALPAPIEKTISKAKQPREPQVYTLPPSRDELTKNQVSLTCLVKGFYPSDIAVEWESNGQPENNYKTTPPVLDSDGSFFLYSKLTVDKSRWQQGNVFSCSVMHEALHNHYTQKSLSLSPGK
light: DIQMTQSPSFLSASVGDRVTITCRASQGISSYLAWYQQKPGKAPKLLIYAASTLQSGVPSRFSGSGSGTEFTLTISSLQPEDFATYYCQQLNSDPPVTFGPGTKVDIKRTVAAPSVFIFPPSDEQLKSGTASVVCLLNNFYPREAKVQWKVDNALQSGNSQESVTEQDSKDSTYSLSSTLTLSKADYEKHKVYACEVTHQGLSSPVTKSFNRGEC
B2: Cv2.3194 IgG1 (antibody)
heavy: EVQLVESGGGLIQPGGSLRLSCAASGITVTSNYMSWVRQAPGKGLEWVSVIYPGGSTFYADSVKGRFTISRDNSKNTLYLQMNSLRAEDTAVYYCARDLVVYGMDVWGQGTTVTVSSASTKGPSVFPLAPSSKSTSGGTAALGCLVKDYFPEPVTVSWNSGALTSGVHTFPAVLQSSGLYSLSSVVTVPSSSLGTQTYICNVNHKPSNTKVDKKVEPKSCDKTHTCPPCPAPELLGGPSVFLFPPKPKDTLMISRTPEVTCVVVDVSHEDPEVKFNWYVDGVEVHNAKTKPREEQYNSTYRVVSVLTVLHQDWLNGKEYKCKVSNKALPAPIEKTISKAKQPREPQVYTLPPSRDELTKNQVSLTCLVKGFYPSDIAVEWESNGQPENNYKTTPPVLDSDGSFFLYSKLTVDKSRWQQGNVFSCSVMHEALHNHYTQKSLSLSPGK
light: EIVLTQSPGTLSLSPGERATLSCRASQSVSSSYLAWYQQKPGQAPRLLIYGASSRATGIPGRFSGSGSGTDFTLTISRLEPEDFAIYYCQQGVTFGGGTKVEIKRTVAAPSVFIFPPSDEQLKSGTASVVCLLNNFYPREAKVQWKVDNALQSGNSQESVTEQDSKDSTYSLSSTLTLSKADYEKHKVYACEVTHQGLSSPVTKSFNRGEC
B3: Cv2.5213 IgG1 (antibody)
heavy: B2 heavy with I27F, T30S, V50L, P53S, F58Y, V100N, V101Y, T111A
light: not shown
B4: Cv2.3235 IgG1 (antibody)
heavy: B2 heavy with I27F, T30S, S31R, P53S, L99G, V100D, V101Y
light: DIQMTQSPSFLSASVGDRVTITCRASQGISSFLAWYQQKPGKAPKLLIYGASTLQSGVTSRFSGSGSGTEFTLTISSLQPEDFATYYCQRLDSYPPITFGQGTRLEIKRTVAAPSVFIFPPSDEQLKSGTASVVCLLNNFYPREAKVQWKVDNALQSGNSQESVTEQDSKDSTYSLSSTLTLSKADYEKHKVYACEVTHQGLSSPVTKSFNRGEC

Where a chain is given by its changes, count along the chain named.

The test addresses SARS-CoV-2 RBD结构域 (wild type) (SARS-CoV-2). Description: SPR (Biacore), antibody coupled to CM5 chip, viral protein as analyte, 25°C. As to conditions: remark: other sources report otherwise. (Surface plasmon resonance follows binding to a sensor surface in real time, without labels.)
A word on the Kd: it is the free concentration of one partner at which half of the binding sites on the other are occupied at equilibrium, for simple one-to-one binding. Read a low Kd as a tighter complex. Consider B1, for which the Kd was below 1 µM.

B2 had a Kd below 1 µM.

Molecule B3 yielded a Kd below 1 µM.

Turning to B4, the Kd was below 1 µM.
